{
  "source": "the nanobody polyreactivity screen of Harvey et al. (2022)",
  "data": [
    {"test": "yeast display, Sf9 membrane polyspecificity reagent, FACS + sequencing; frameworks hold sequencing errors", "how_it_was_run": "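In a synthetic yeast display library (Saccharomyces cerevisiae BJ5465), nanobody expression was induced with galactose for 36–48 hours. FACS gates were set low and high (top ~1%) using anti-HA fluorescence for expression and streptavidin fluorescence for binding of the Sf9 membrane reagent. Each polyreactivity label is drawn from the gate of origin.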", "values": [
      {"sequence": "QVQLVESGGGLVQAGGSLRLSCAASGSIFHAYAMGWYRQAPGKERELVAAINRGGRTNYADSVKGRFTISRDNAKNTVYLQMNSLKPEDTAVYYCAASYRWVTDKTHYYWGQGTQVTVSS", "polyreactivity (PSR sort gate)": "low polyreactivity"},
      {"sequence": "QVQLVESGGGLVQAGGSLRLSCAASGSIFHDNAMGWYRQAPGKERELVAAINRGGSTHYADSVKGRFTISRDNAKNTVYLQMNSLKPEDTAVYYCAADGFRPEVGYWGQGTQVTVSS", "polyreactivity (PSR sort gate)": "low polyreactivity"},
      {"sequence": "QVQLVESGGGLVQAGGSLRLSCAASGSIFHGNAMGWYRQAHGKERELVAVISDGGSTDYADSVKGRFTISRDNANNSVYLQMTSLKPEDTAVYYCNAAYDTQYFYRKHIYYLSGYDYWGQGTQVTVSS", "polyreactivity (PSR sort gate)": "low polyreactivity"},
      {"sequence": "QVQLVESGGGLVQAGGSLRLSCAASGSIFHGYAMGWYRQAPGKERELVAAISSTGGSTYYADSVKGRFTISRDNAKNTVYLQMNSLKPEDTAVYYCAAYYYVGYRARRYDYWGQGTQVTVSS", "polyreactivity (PSR sort gate)": "high polyreactivity"},
      {"sequence": "QVQLVESGGGLVQAGGSLRLSCAASGSIFHLYAMGWYRQAPGKERELVAAITWTGGSTYYADSVKGRFTISRDNAKNTVYLQMNSLKPEDTAVYYCAARQQVRLRPGPLYYYWGQGTQVTVSS", "polyreactivity (PSR sort gate)": "high polyreactivity"},
      {"sequence": "QVQLVESGGGLVQAGGSLRLSCAASGSIFHPYGMGWYRQAPGKERELVAAITSSGGDTYYADSVKGRFTFSRDIAKNTVYLQMISLKPEDTAVYYCAATGLPGYYAYDYWGQGTQVTVSS", "polyreactivity (PSR sort gate)": "low polyreactivity"},
      {"sequence": "QVQLVESGGGLVQAGGSLRLSCAASGSIFHPYTMGWYRQAPGKERELVAAISWSGGNTNYADSVKGRFTISRDNAKNTVYLQMNSLKPEDTAVYYCNKATNLSGGYDSWGQGTQVTVSS", "polyreactivity (PSR sort gate)": "low polyreactivity"},
      {"sequence": "QVQLVESGGGLVQAGGSLRLSCAASGSIFHQYVMGWYRQAPGKERELVAAISIRGTRTYYADSVKGRFTISRDNAKNTVYLQMNSLKPEDTAVYYCAVSGGRLQGDYWGQGTQVTVSS", "polyreactivity (PSR sort gate)": "high polyreactivity"},
      {"sequence": "QVQLVESGGGLVQAGGSLRLSCAASGSIFHSYAMGWYRQAPGKETELVASITASGDSTYYADSVKGRFTISRDNAKNTVYLQMNSLKPEDTAVYYCNTQAVYGGGEGGYDYWGQCTQVTVSS", "polyreactivity (PSR sort gate)": "low polyreactivity"},
      {"sequence": "QVQLVESGGGLVQAGGSLRLSCAASGSIFHVYAMGWYRQAPGKERELVAAIDRSGGSTYYADSVKGRFTISRDNAKNTVYLQMNSLKPEDTAVYYCAKDVLGGQITDGVGNDYWGQGTQVTVSS", "polyreactivity (PSR sort gate)": "low polyreactivity"},
      {"sequence": "QVQLVESGGGLVQAGGSLRLSCAASGSIFHWYTMGWYRQAPGKERELVATISAGGSTYYADSVKGRFKISRDNAKNTVYLQMNSLKPEDTAVYYCNRRVHGVYRWRRSDSWGQGTQVTVAS", "polyreactivity (PSR sort gate)": "high polyreactivity"},
      {"sequence": "QVQLVESGGGLVQAGGSLRLSCAASGSIFIGNTMGWYRQAPGKERELVATIRRSGSRTYYADSVKGRFTISRDNAKNTVYLQMNSLKPEDTAVYYCAADRLRNSGYKTIYDYWGQGTQVTVSS", "polyreactivity (PSR sort gate)": "low polyreactivity"},
      {"sequence": "QVQLVESGGGLVQAGGSLRLSCAASGSIFIGYAMGWYRQAPGKERELVAAISWSGDSTYYADSVKGRFTISRDNAKNTVYLQMNSLKPEDTAVYYCARDKWGLRYAPTVDYWGQGTQVTVSS", "polyreactivity (PSR sort gate)": "high polyreactivity"},
      {"sequence": "QVQLVESGGGLVQAGGSLRLSCAASGSIFIGYGMGWYRQAPGKERELVAAITSGSITNYADSVKGRFTISRDNAKNTVYLQMNSLKPEDTAVYNCNADVNFIDDDYWGQGTQVTVSA", "polyreactivity (PSR sort gate)": "low polyreactivity"},
      {"sequence": "QVQLVESGGGLVQAGGSLRLSCAASGSIFIINAMVWYRQAPGKERELVAAINNGVNTYYADSVKGRFTISRDNAKNTVYLQMNSLKPEDTAGYYCAADYGDPRVNEYDYWGQGTQVTVSS", "polyreactivity (PSR sort gate)": "low polyreactivity"},
      {"sequence": "QVQLVESGGGLVQAGGSLRLSCAASGSIFINNMGWYRQAPGKERELVAAISNSGGRTYYADSVKGRFTISRDNAKNTVYLQMNSLKPEDTAVYYCAKKSNRLPYGYWGQGTQVTVSS", "polyreactivity (PSR sort gate)": "high polyreactivity"},
      {"sequence": "QVQLVESGGGLVQAGGSLRLSCAASGSIFIPNAMGWYRQAPGKERELVAAIRSGGSTYYADSVKGRFTISRDNAKNTVYLQLLSLKPEDTAVYYCAADTYTYYYYLARYYYWGQGTQVTVSS", "polyreactivity (PSR sort gate)": "low polyreactivity"}
    ]}
  ]
}
